Test results published in paper PMC9482650, “Quantitative fragmentomics allow affinity mapping of interactomes” (Nature Communications, 2022).
One block for each binder: values may come before it.

Tests used:
Test in all cases: holdup assay
Parameters in all cases: key: below the threshold = too weak to quantify, mostly under pKd 3.1 to 4
Settings in all cases: plain residues with an end cap or a label only (N-terminal biotin on a linker: ado-ado)
APBA1_1, Q02410 = molecular target: T1, APBA1_1, Q02410
T1 sequence (Q02410 651-752, limits assumed, looked up): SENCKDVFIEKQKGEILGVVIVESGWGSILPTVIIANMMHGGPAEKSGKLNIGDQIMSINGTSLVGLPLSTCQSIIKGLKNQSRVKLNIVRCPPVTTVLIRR

APBA1_2, Q02410 = molecular target: T2, APBA1_2, Q02410
T2 sequence (Q02410 742-832, limits assumed, looked up): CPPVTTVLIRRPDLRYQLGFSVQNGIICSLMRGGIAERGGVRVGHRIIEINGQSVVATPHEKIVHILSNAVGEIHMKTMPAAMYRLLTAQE

APBA2_1, Q99767 = molecular target: T3, APBA2_1, Q99767
T3 sequence (Q99767 563-664, limits assumed, looked up): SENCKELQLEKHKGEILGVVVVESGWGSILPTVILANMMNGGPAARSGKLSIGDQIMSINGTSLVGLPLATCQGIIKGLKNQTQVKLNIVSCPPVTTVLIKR

APBA3_1, O96018 = molecular target: T4, APBA3_1, O96018
T4 sequence (O96018 389-490, limits assumed, looked up): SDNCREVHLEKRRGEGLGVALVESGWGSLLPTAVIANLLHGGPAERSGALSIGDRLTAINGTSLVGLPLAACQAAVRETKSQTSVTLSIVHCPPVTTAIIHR

DFNB31_1, Q9P202 = molecular target: T5, DFNB31_1, Q9P202
T5 sequence (Q9P202 135-233, limits assumed, looked up): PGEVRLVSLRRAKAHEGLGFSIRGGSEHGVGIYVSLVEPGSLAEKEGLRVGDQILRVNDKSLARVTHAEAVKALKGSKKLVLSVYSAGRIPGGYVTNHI

DLG1_1, Q12959 = molecular target: DLG1_1, Q12959
DLG1_2, Q12959 = molecular target: DLG1_2, Q12959
DLG1_3, Q12959 = molecular target: DLG1_3, Q12959
DLG2_3, Q15700 = molecular target: DLG2_3, Q15700
FRMPD1, Q5SYB0 = molecular target: T6, FRMPD1, Q5SYB0
T6 sequence (Q5SYB0 52-145, limits assumed, looked up): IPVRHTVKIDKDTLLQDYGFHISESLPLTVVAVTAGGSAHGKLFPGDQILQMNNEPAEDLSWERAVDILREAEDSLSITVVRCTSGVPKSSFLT

FRMPD3, Q5JV73 = molecular target: FRMPD3, Q5JV73
Sequence of FRMPD3, Q5JV73 (Q5JV73 12-100): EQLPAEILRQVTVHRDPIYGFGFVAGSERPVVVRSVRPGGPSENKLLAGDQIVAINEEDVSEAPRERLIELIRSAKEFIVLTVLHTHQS

FRMPD4, Q14CM0 = molecular target: FRMPD4, Q14CM0
Sequence of FRMPD4, Q14CM0 (Q14CM0 67-160): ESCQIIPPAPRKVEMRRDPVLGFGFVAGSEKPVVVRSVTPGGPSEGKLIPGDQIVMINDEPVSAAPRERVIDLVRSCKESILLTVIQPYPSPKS

GRID2IP_1, A4D2P6 = molecular target: GRID2IP_1, A4D2P6
Sequence of GRID2IP_1, A4D2P6 (A4D2P6 1-87): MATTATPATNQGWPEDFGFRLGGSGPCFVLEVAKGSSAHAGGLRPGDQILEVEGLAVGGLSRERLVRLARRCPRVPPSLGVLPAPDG

GRIP1_7, Q9Y3R0 = molecular target: T7, GRIP1_7, Q9Y3R0
T7 sequence (Q9Y3R0 999-1096, limits assumed, looked up): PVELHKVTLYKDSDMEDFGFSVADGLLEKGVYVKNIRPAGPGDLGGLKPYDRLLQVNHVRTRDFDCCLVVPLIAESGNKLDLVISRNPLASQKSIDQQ

GRIP2_7, Q9C0E4 = molecular target: GRIP2_7, Q9C0E4
Sequence of GRIP2_7, Q9C0E4 (Q9C0E4 934-1023): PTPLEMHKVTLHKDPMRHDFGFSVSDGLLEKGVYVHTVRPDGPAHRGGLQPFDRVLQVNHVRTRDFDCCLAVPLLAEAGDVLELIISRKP

HTRA2, O43464 = molecular target: HTRA2, O43464
Sequence of HTRA2, O43464 (O43464 355-458): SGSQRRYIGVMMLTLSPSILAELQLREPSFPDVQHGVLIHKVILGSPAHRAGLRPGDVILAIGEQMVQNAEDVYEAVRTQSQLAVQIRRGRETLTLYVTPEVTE

IL16_4, Q14005 = molecular target: IL16_4, Q14005
Sequence of IL16_4, Q14005 (Q14005 1229-1329): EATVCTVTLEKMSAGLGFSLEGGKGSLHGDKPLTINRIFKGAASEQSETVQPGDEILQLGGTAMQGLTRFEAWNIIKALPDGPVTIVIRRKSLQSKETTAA

Inadl_2, Q8NI35 = molecular target: Inadl_2, Q8NI35
Sequence of Inadl_2, Q8NI35 (Q8NI35 238-335): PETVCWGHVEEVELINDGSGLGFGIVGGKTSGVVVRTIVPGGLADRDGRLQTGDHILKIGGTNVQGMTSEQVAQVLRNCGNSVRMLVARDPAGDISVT

Inadl_5, Q8NI35 = molecular target: Inadl_5, Q8NI35
Sequence of Inadl_5, Q8NI35 (Q8NI35 673-780): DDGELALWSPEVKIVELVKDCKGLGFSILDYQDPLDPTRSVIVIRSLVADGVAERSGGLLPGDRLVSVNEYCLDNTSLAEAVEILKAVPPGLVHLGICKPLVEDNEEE

LRRC7, Q96NW7 = molecular target: T8, LRRC7, Q96NW7
T8 sequence (Q96NW7 1440-1537, limits assumed, looked up): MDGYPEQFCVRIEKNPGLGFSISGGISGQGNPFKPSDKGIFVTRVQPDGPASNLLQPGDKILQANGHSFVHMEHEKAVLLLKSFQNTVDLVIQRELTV

MAGI2_2, Q86UL8 = molecular target: MAGI2_2, Q86UL8
Sequence of MAGI2_2, Q86UL8 (Q86UL8 410-522): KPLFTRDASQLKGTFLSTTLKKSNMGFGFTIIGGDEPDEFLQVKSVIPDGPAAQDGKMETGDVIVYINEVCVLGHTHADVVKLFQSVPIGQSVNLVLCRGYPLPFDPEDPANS

MAGI2_3, Q86UL8 = molecular target: MAGI2_3, Q86UL8
Sequence of MAGI2_3, Q86UL8 (Q86UL8 600-682): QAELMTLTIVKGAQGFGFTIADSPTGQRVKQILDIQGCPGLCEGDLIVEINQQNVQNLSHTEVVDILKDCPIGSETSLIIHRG

NHERF3_1, Q5T2W1 = molecular target: T9, NHERF3_1, Q5T2W1
T9 sequence (Q5T2W1 4-100, limits assumed, looked up): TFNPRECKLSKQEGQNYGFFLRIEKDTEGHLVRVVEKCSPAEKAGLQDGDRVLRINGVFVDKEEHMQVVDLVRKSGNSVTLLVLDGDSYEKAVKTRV

NHERF3_3, Q5T2W1 = molecular target: T10, NHERF3_3, Q5T2W1
T10 sequence (Q5T2W1 238-333, limits assumed, looked up): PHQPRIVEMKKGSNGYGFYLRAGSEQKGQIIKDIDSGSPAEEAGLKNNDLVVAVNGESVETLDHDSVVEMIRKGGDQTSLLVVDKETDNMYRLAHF

NHERF3_4, Q5T2W1 = molecular target: T11, NHERF3_4, Q5T2W1
T11 sequence (Q5T2W1 373-468, limits assumed, looked up): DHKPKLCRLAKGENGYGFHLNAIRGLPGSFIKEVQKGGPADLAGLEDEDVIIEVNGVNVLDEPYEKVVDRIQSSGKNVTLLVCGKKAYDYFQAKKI

PTPN13_1, Q12923 = molecular target: T12, PTPN13_1, Q12923
T12 sequence (Q12923 1088-1188, limits assumed, looked up): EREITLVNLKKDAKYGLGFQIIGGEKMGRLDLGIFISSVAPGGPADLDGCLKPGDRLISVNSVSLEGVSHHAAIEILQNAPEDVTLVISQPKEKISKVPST

B3: GOT1L1, Q8NHS2 (peptide)
chain: EKKTLIGIKL
pKd (APBA1_1, Q02410): below the threshold
pKd (APBA1_2, Q02410): below the threshold
pKd (APBA2_1, Q99767): below the threshold
pKd (APBA3_1, O96018): below the threshold
pKd (DFNB31_1, Q9P202): below the threshold
pKd (DLG1_1, Q12959): below the threshold
pKd (DLG1_2, Q12959): below the threshold
pKd (DLG1_3, Q12959): below the threshold
pKd (DLG2_3, Q15700): below the threshold
pKd (FRMPD1, Q5SYB0): below the threshold
pKd (FRMPD3, Q5JV73): below the threshold
pKd (FRMPD4, Q14CM0): 4.47
pKd (GRID2IP_1, A4D2P6): below the threshold
pKd (GRIP1_7, Q9Y3R0): below the threshold
pKd (GRIP2_7, Q9C0E4): below the threshold
pKd (HTRA2, O43464): below the threshold
pKd (IL16_4, Q14005): below the threshold
pKd (Inadl_2, Q8NI35): below the threshold
pKd (Inadl_5, Q8NI35): below the threshold
pKd (LRRC7, Q96NW7): below the threshold
pKd (MAGI2_2, Q86UL8): 3.52
pKd (MAGI2_3, Q86UL8): below the threshold
pKd (NHERF3_1, Q5T2W1): 4.78
pKd (NHERF3_3, Q5T2W1): below the threshold
pKd (NHERF3_4, Q5T2W1): 4.74
pKd (PTPN13_1, Q12923): 3.63

B4: CAVIN3, Q969G5 (peptide)
chain: EALLQMESVA
pKd (APBA1_1, Q02410): below the threshold
pKd (APBA1_2, Q02410): 3.5
pKd (APBA2_1, Q99767): below the threshold
pKd (APBA3_1, O96018): below the threshold
pKd (DFNB31_1, Q9P202): below the threshold
pKd (DLG1_1, Q12959): below the threshold
pKd (DLG1_2, Q12959): below the threshold
pKd (DLG1_3, Q12959): below the threshold
pKd (DLG2_3, Q15700): 3.84
pKd (FRMPD1, Q5SYB0): below the threshold
pKd (FRMPD3, Q5JV73): below the threshold
pKd (FRMPD4, Q14CM0): below the threshold
pKd (GRID2IP_1, A4D2P6): below the threshold
pKd (GRIP1_7, Q9Y3R0): below the threshold
pKd (GRIP2_7, Q9C0E4): below the threshold
pKd (HTRA2, O43464): below the threshold
pKd (IL16_4, Q14005): below the threshold
pKd (Inadl_2, Q8NI35): below the threshold
pKd (Inadl_5, Q8NI35): below the threshold
pKd (LRRC7, Q96NW7): below the threshold
pKd (MAGI2_2, Q86UL8): below the threshold
pKd (MAGI2_3, Q86UL8): below the threshold
pKd (NHERF3_1, Q5T2W1): below the threshold
pKd (NHERF3_3, Q5T2W1): below the threshold
pKd (NHERF3_4, Q5T2W1): below the threshold
pKd (PTPN13_1, Q12923): below the threshold

Now from value to binder:

pKd (APBA1_1, Q02410): below the threshold
pKd (APBA1_2, Q02410): below the threshold
pKd (APBA2_1, Q99767): below the threshold
pKd (APBA3_1, O96018): below the threshold
pKd (DFNB31_1, Q9P202): below the threshold
pKd (DLG1_1, Q12959): below the threshold
pKd (DLG1_2, Q12959): below the threshold
pKd (DLG1_3, Q12959): below the threshold
pKd (DLG2_3, Q15700): below the threshold
pKd (FRMPD1, Q5SYB0): below the threshold
pKd (FRMPD3, Q5JV73): below the threshold
pKd (FRMPD4, Q14CM0): 3.5
pKd (GRID2IP_1, A4D2P6): below the threshold
pKd (GRIP1_7, Q9Y3R0): below the threshold
pKd (GRIP2_7, Q9C0E4): below the threshold
pKd (HTRA2, O43464): below the threshold
pKd (IL16_4, Q14005): below the threshold
pKd (Inadl_2, Q8NI35): below the threshold
pKd (Inadl_5, Q8NI35): below the threshold
pKd (LRRC7, Q96NW7): below the threshold
pKd (MAGI2_2, Q86UL8): 3.71
pKd (MAGI2_3, Q86UL8): below the threshold
pKd (NHERF3_1, Q5T2W1): 4.72
pKd (NHERF3_3, Q5T2W1): below the threshold
pKd (NHERF3_4, Q5T2W1): below the threshold
pKd (PTPN13_1, Q12923): below the threshold
B1: HCN2, Q9UL51 (peptide)
chain: SARSRLSSNL

pKd (APBA1_1, Q02410): below the threshold
pKd (APBA1_2, Q02410): below the threshold
pKd (APBA2_1, Q99767): below the threshold
pKd (APBA3_1, O96018): below the threshold
pKd (DFNB31_1, Q9P202): below the threshold
pKd (DLG1_1, Q12959): below the threshold
pKd (DLG1_2, Q12959): below the threshold
pKd (DLG1_3, Q12959): below the threshold
pKd (DLG2_3, Q15700): below the threshold
pKd (FRMPD1, Q5SYB0): below the threshold
pKd (FRMPD3, Q5JV73): below the threshold
pKd (FRMPD4, Q14CM0): 3.7
pKd (GRID2IP_1, A4D2P6): below the threshold
pKd (GRIP1_7, Q9Y3R0): below the threshold
pKd (GRIP2_7, Q9C0E4): below the threshold
pKd (HTRA2, O43464): below the threshold
pKd (IL16_4, Q14005): below the threshold
pKd (Inadl_2, Q8NI35): below the threshold
pKd (Inadl_5, Q8NI35): below the threshold
pKd (LRRC7, Q96NW7): below the threshold
pKd (MAGI2_2, Q86UL8): below the threshold
pKd (MAGI2_3, Q86UL8): below the threshold
pKd (NHERF3_1, Q5T2W1): 4.56
pKd (NHERF3_3, Q5T2W1): below the threshold
pKd (NHERF3_4, Q5T2W1): below the threshold
pKd (PTPN13_1, Q12923): below the threshold
B2: TRAF2, Q12933 (peptide)
chain: IKAIVDLTGL
